Target: […] / HLA-B*07:02 tetramer (human; SARS-CoV-2)
Test: DNA-barcoded tetramer staining, single-cell sequencing

B1: TCR_11 (TCR, V domains shown)
V domain 1: EDQVTQSPEALRLQEGESSSLNCSYTVSGLRGLFWYRQDPGKGPEFLFTLYSAGEEKEKERLKATLTKKESFLHITAPKPEDSATYLCAVQAPMSARGSQGNLIFGKGTKLSVKP
V domain 2: GAGVSQSPSNKVTEKGKDVELRCDPISGHTALYWYRQSLGQGLEFLIYFQGNSAPDKSGLPSDRFSAERTGGSVSTLTIQRTQQEDSAVYLCASSSKGGGQQTQYFGPGTRLLVLE
Q: B1 was tested. Which “No. of Cells” value did it give?
A: Its value is 10 cells.

Reference: patent publication US20220033460A1 (REPERTOIRE IMMUNE MEDICINES, published 2022)
